{"source": "patent US20250339531A1", "about": "“DUX4 POLYPEPTIDES AND NUCLEIC ACIDS FOR TREATING INFLAMMATORY AND AUTOIMMUNE CONDITIONS” (Fred Hutchinson Cancer Center, priority 2021, published 2025)", "system": "proteins that co-immunoprecipitated with DUX4-CTD constructs expressed in MB135 myoblasts", "test": "LC-MS of proteins co-immunoprecipitated with DUX4-CTD (Table 1) and western validation", "assay_type": "binding, human", "parameters": "key to 4. mL1dL2 + Dox + IFNG / 4. + IFNG mix / 4. longCTD + Dox + IFNG / 3. + IFNg + Dox longCTD / 3. + Dox longCTD / 3. + IFNG longCTD: peptide-spectrum matches (PSMs) per protein", "conditions": "kind of count not given; for 4. mL1dL2 + Dox + IFNG: LC-MS value per protein co-immunoprecipitated with DUX4-CTD construct mL1dL2 in MB135 myoblasts; for 4. + IFNG mix: LC-MS value per protein co-immunoprecipitated from MB135 myoblasts, + IFNG mix sample (no Dox)", "source_text": "As an unbiased method to identify proteins that interact with the C-terminal region of DUX4, liquid chromatography mass spectroscopy (LC-MS) was used to identify proteins that co-immunoprecipitated with DUX4-CTD constructs expressed in MB135 myoblasts. In the first experiment, MB135iDUX4-CTD cells were used, either untreated, treated with doxycycline alone, or with both doxycycline and IFNG. In the second experiment, MB135iDUX4-CTD and MB135iDUX4mL1dL2 cells were used, both treated with doxycycline and IFNG, compared to these two cell lines untreated and combined as a control. Proteins with a minimum of 2 peptide spectrum matches (PSMs) in at least one sample that were identified in both experiments were assigned to one of ten categories (see Methods) to separate candidate interactors from other categories that might be co-purified because of obligate interactions (e.g., proteasome or ribosome) or might be less likely to be physiologically relevant (e.g., cytoskeletal proteins). Candidate interactors were then ranked based on the total PSMs for that protein across all samples.\nCentrifugation at 2500 rcf at 4° C. for 5 min pelleted the nuclei, supernatant was discarded, and nuclei resuspended in 1 mL IP buffer pH 7.4 (25 mM Tris-HCl pH 7.5, 175 mM NaCl, 1 mM EDTA, 0.2% NP-40, 5% glycerol) and incubated for 1 hour at 4° C. with rotation then spun at 21000 rcf for 10 minutes at 4° C. to pellet insoluble debris. Protein concentration was determined using the Pierce BCA Protein Assay Kit (ThermoFisher, 23225). An equivalent amount of protein per sample was pre-cleared with Dynabeads Protein G (Invitrogen) bound to mouse IgG (Abcam #131368) for 1 hour at 4° C. with rotation. FLAG-tagged constructs were then immunoprecipitated with Dynabeads Protein G beads coupled to mouse anti-FLAG M2 mAb (Sigma F3165) for 3 hours at 4° C. with rotation. Beads were washed 3× with 1 mL IP buffer and eluted by adding 2× NuPage LDS Sample Buffer (Thermo Fisher, diluted from 4× with PBS) to the beads and heating for 10 minutes at 70° C.\nFor LC-MS, anti-FLAG immunoprecipitation was performed with beads cross-linked to the anti-FLAG antibody and the proteins competitively eluted with FLAG peptide. Eluted protein samples were electrophoresed into a NuPage 4-12% Bis-Tris gel, excised, and processed by the Fred Hutchinson Cancer Research Center Proteomics Core. Samples were reduced, alkylated, digested with trypsin, desalted, and run on the Orbitrap Eclipse Tribid Mass Spectrometer (Thermo Fisher). Proteomics data were analyzed using Proteome Discoverer 2.4 against a Uniprot human database that included common contaminants using Sequest HT and Percolator for scoring. […] Proteins that were identified in at least one sample from both independent experiments with at least 2 PSMs in one sample were assigned to one of ten categories: 1, candidates; 2, cytoskeletal associated; 3, cytoskeletal; 4, ribosome/translation associated; 5, proteasome associated; 6, membrane or extracellular; ER, golgi, or vesicle associated; 8, lipid metabolism; 9, chaperones; 10, nuclear import or nuclear membrane associated. The proteins in category 1 were further investigated for interactions with DUX4.", "data": [{"molecule": "IGF2BP2 (protein) MMNKLYIGNLSPAVTADDLRQLFGDRKLPLAGQVLLKSGYAFVDYPDQNWAIRAIETLSGKVELHGKIMEVDYSVSKKLRSRKIQIRNIPPHLQWEVLDGLLAQYGTVENVEQVFAFSLVNTDTETAVVNVTYATREEAKIAMEKLSGHQFENYSFKISYIPDEEVSSPSPPQRAQRGDHSSREQGHAPGGTSQARQIDFPLRILVPTQFVGAIIGKEGLTIKNITKQTQSRVDIHRKENSGAAEKPVTIHATPEGTSEACRMILEIMQKEADETKLAEEIPLKILAHNGLVGRLIGKEGRNLKKIEHETGTKITISSLQDLSIYNPERTITVKGTVEACASAEIEIMKKLREAFENDMLAVNQQANLIPGLNLSALGIFSTGLSVLSPPAGPRGAPPAAPYHPFTTHSGYFSSLYPHHQFGPFPHHHSYPEQEIVNLFIPTQAVGAIIGKKGAHIKQLARFAGASIKIAPAEGPDVSERMVIITGPPEAQFKAQGRIFGKLKEENFFNPKEEVKLEAHIRVPSSTAGRVIGKGGKTVNELQNLTSAEVIVPRDQTPDENEEVIVRIIGHFFASQTAQRKIREIVQQVKQQEQKYPQGVASQRSK", "values": [{"measurement": "4. mL1dL2 + Dox + IFNG", "value": 1}]}, {"molecule": "USP11 (protein) MAVAPRLFGGLCFRFRDQNPEVAVEGRLPISHSCVGCRRERTAMATVAANPAAAAAAVAAAAAVTEDREPQHEELPGLDSQWRQIENGESGRERPLRAGESWFLVEKHWYKQWEAYVQGGDQDSSTFPGCINNATLFQDEINWRLKEGLVEGEDYVLLPAAAWHYLVSWYGLEHGQPPIERKVIELPNIQKVEVYPVELLLVRHNDLGKSHTVQFSHTDSIGLVLRTARERFLVEPQEDTRLWAKNSEGSLDRLYDTHITVLDAALETGQLIIMETRKKDGTWPSAQLHVMNNNMSEEDEDFKGQPGICGLTNLGNTCFMNSALQCLSNVPQLTEYFLNNCYLEELNFRNPLGMKGEIAEAYADLVKQAWSGHHRSIVPHVFKNKVGHFASQFLGYQQHDSQELLSFLLDGLHEDLNRVKKKEYVELCDAAGRPDQEVAQEAWQNHKRRNDSVIVDTFHGLFKSTLVCPDCGNVSVTFDPFCYLSVPLPISHKRVLEVFFIPMDPRRKPEQHRLVVPKKGKISDLCVALSKHTGISPERMMVADVFSHRFYKLYQLEEPLSSILDRDDIFVYEVSGRIEAIEGSREDIVVPVYLRERTPARDYNNSYYGLMLFGHPLLVSVPRDRFTWEGLYNVLMYRLSRYVTKPNSDDEDDGDEKEDDEEDKDDVPGPSTGGSLRDPEPEQAGPSSGVTNRCPFLLDNCLGTSQWPPRRRRKQLFTLQTVNSNGTSDRTTSPEEVHAQPYIAIDWEPEMKKRYYDEVEAEGYVKHDCVGYVMKKAPVRLQECIELFTTVETLEKENPWYCPSCKQHQLATKKLDLWMLPEILIIHLKRFSYTKFSREKLDTLVEFPIRDLDFSEFVIQPQNESNPELYKYDLIAVSNHYGGMRDGHYTTFACNKDSGQWHYFDDNSVSPVNENQIESKAAYVLFYQRQDVARRLLSPAGSSGAPASPACSSPPSSEFMDVN", "values": [{"measurement": "4. mL1dL2 + Dox + IFNG", "value": 1}]}, {"molecule": "ENDOD1 (protein) RLVGEEEAGFGECDKFFYAGTPPAGLAADSHVKICQRAEGAERFATLYSTRDRIPVYSAFRAPRPAPGGAEQRWLVEPQIDDPNSNLEEAINEAEAITSVNSLGSKQALNTDYLDSDYQRGQLYPFSLSSDVQVATFTLTNSAPMTQSFQERWYVNLHSLMDRALTPQCGSGEDLYILTGTVPSDYRVKDKVAVPEFVWLAACCAVPGGGWAMGFVKHTRDSDIIEDVMVKDLQKLLPFNPQLFQNNCGETEQDTEKMKKILEVVNQIQDEERMVQSQKSSSPLSSTRSKRSTLLPPEASEGSSSFLGKLMGFIATPFIKLFQLIYYLVVAILKNIVYFLWCVTKQVINGIESCLYRLGSATISYFMAIGEELVSIPWKVLKVVAKVIRALLRILCCLLKAICRVLSIPVRVLVDVATFPVYTMGAIPIVCKDIALGLGGTVSLLFDTAFGTLGGLFQVVFSVCKRIGYKVTFDNSGEL", "values": [{"measurement": "4. + IFNG mix", "value": 1}, {"measurement": "4. mL1dL2 + Dox + IFNG", "value": 1}]}, {"molecule": "CKAP4 (protein) MPSAKQRGSKGGHGAASPSEKGAHPSGGADDVAKKPPPAPQQPPPPPAPHPQQHPQQHPQNQAHGKGGHRGGGGGGGKSSSSSSASAAAAAAAASSSASCSRRLGRALNFLFYLALVAAAAFSGWCVHHVLEEVQQVRRSHQDFSRQREELGQGLQGVEQKVQSLQATFGTFESILRSSQHKQDLTEKAVKQGESEVSRISEVLQKLQNEILKDLSDGIHVVKDARERDFTSLENTVEERLTELTKSINDNIAIFTEVQKRSQKEINDMKAKVASLEESEGNKQDLKALKEAVKEIQTSAKSREWDMEALRSTLQTMESDIYTEVRELVSLKQEQQAFKEAADTERLALQALTEKLLRSEESVSRLPEEIRRLEEELRQLKSDSHGPKEDGGFRHSEAFEALQQKSQGLDSRLQHVEDGVLSMQVASARQTESLESLLSKSQEHEQRLAALQGRLEGLGSSEADQDGLASTVRSLGETQLVLYGDVEELKRSVGELPSTVESLQKVQEQVHTLLSQDQAQAARLPPQDFLDRLSSLDNLKASVSQVEADLKMLRTAVDSLVAYSVKIETNENNLESAKGLLDDLRNDLDRLFVKVEKIHEKV", "values": [{"measurement": "4. + IFNG mix", "value": 24}, {"measurement": "4. mL1dL2 + Dox + IFNG", "value": 19}]}, {"molecule": "SERPINB3 (protein) MNSLSEANTKFMFDLFQQFRKSKENNIFYSPISITSALGMVLLGAKDNTAQQIKKVLHFDQVTENTTGKAATYHVDRSGNVHHQFQKLLTEFNKSTDAYELKIANKLFGEKTYLFLQEYLDAIKKFYQTSVESVDFANAPEESRKKINSWVESQTNEKIKNLIPEGNIGSNTTLVLVNAIYFKGQWEKKFNKEDTKEEKFWPNKNTYKSIQMMRQYTSFHFASLEDVQAKVLEIPYKGKDLSMIVLLPNEIDGLQKLEEKLTAEKLMEWTSLQNMRETRVDLHLPRFKVEESYDLKDTLRTMGMVDIFNGDADLSGMTGSRGLVLSGVLHKAFVEVTEEGAEAAAATAVVGFGSSPTSTNEEFHCNHPFLFFIRQNKTNSILFYGRFSSP", "values": [{"measurement": "4. + IFNG mix", "value": 2}]}, {"molecule": "STAT1 (protein) SQWYELQQLDSKFLEQVHQLYDDSFPMEIRQYLAQWLEKQDWEHAANDVSFATIRFHDLLSQLDDQYSRFSLENNFLLQHNIRKSKRNLQDNFQEDPIQMSMIIYSCLKEERKILENAQRFNQAQSGNIQSTVMLDKQKELDSKVRNVKDKVMCIEHEIKSLEDLQDEYDFKCKTLQNREHETNGVAKSDQKQEQLLLKKMYLMLDNKRKEVVHKIIELLNVTELTQNALINDELVEWKRRQQSACIGGPPNACLDQLQNWFTIVAESLQQVRQQLKKLEELEQKYTYEHDPITKNKQVLWDRTFSLFQQLIQSSFVVERQPCMPTHPQRPLVLKTGVQFTVKLRLLVKLQELNYNLKVKVLFDKDVNERNTVKGFRKFNILGTHTKVMNMEESTNGSLAAEFRHLQLKEQKNAGTRTNEGPLIVTEELHSLSFETQLCQPGLVIDLETTSLPVVVISNVSQLPSGWASILWYNMLVAEPRNLSFFLTPPCARWAQLSEVLSWQFSSVTKRGLNVDQLNMLGEKLLGPNASPDGLIPWTRFCKENINDKNFPFWLWIESILELIKKHLLPLWNDGCIMGFISKERERALLKDQQPGTFLLRFSESSREGAITFTWVERSQNGGEPDFHAVEPYTKKELSAVTFPDIIRNYKVMAAENIPENPLKYLYPNIDKDHAFGKYYSRPKEAPEPMELDGPKGTGYIKTELISVSEVHPSRLQTTDNLLPMSPEEFDEVSRIVGSVEFDSMMNTV", "values": [{"measurement": "4. + IFNG mix", "value": 3}, {"measurement": "4. mL1dL2 + Dox + IFNG", "value": 18}]}]}
